# Measured values taken from the nanobody polyreactivity screen of Harvey et al. (2022).
# Assay: yeast display, Sf9 membrane polyspecificity reagent, FACS + sequencing; frameworks hold sequencing errors
# Summary of the method: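 Using colony PCR, genes from sorted yeast display clones were amplified, then sequenced on MiSeq at 2 × 250 and filtered by CDR length. The clones had been stained with 10% biotinylated, detergent-solubilized Sf9 membrane reagent for 1 hour at 4 °C and sorted by FACS into low and high (top ~1%) gates on anti-HA and streptavidin fluorescence. Polyreactivity labels come from the gate of origin.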
row,Sequence,polyreactivity (PSR sort gate)
1,QVQLVESGGGLVQAGGSLRLSCAASGTFSPYAIGWYRQAPGKERELVAVITSNTGRTYADSVKGRFTISRDNAKNTVYLQMNSLKPEDTAVYYCAARSTYRHWYRTGSRFDYWGQGTQVTVSS,low polyreactivity
2,QVQLVESGGGLVQAGGSLRLSCAASGTFVTYMGWYRQAPGKERELVAAIRNGGSTNYADSVKGRFTISRDNAKNTVYLQMNSLKPEDTAVYYCAADRAGSIMNYWGQGTQVTVSS,low polyreactivity
3,QVQLVESGGGLVQAGGSLRLSCAASGTFVTYMGWYRQSPGKEREMVAAIRNGGSTNYADSVKGRFTISRDNAKNTVYLQMNSLKPEDTAVYYCAARVTYSRGYRGGSRTKYDYWGQGTQVTVSS,low polyreactivity
4,QVQLVESGGGLVQAGGSLRLSCAASGTFWWYAMGWYRQAPGKERELVASINRGGSTYYADSVKGRFTISRDNANNTVYLQMNSLKPEDTAVYYCNAGWIGRLTPYRRATYNYWGQGTQVTVSS,high polyreactivity
5,QVQLVESGGGLVQAGGSLRLSCAASGTFYRNAMGWYRQAPGKERELVAAISSGSNTDYADSVKGRFTISRDNAKNTVYLQMNSLKPEDTAVYYCNADRGDLYELRGSGYLDGYWGQGTQVTVSS,low polyreactivity
6,QVQLVESGGGLVQAGGSLRLSCAASGTFYRYAMGWYRQAPGKERELVAAIDKTGDTTYYADSVKGRFTISRDNAKNTVYLQMNSLKPEDTAVYYCAATGYPRFGYWGQGTQVTVSS,high polyreactivity
7,QVQLVESGGGLVQAGGSLRLSCAASGTFYTYAMGWYRQAPGKERELVAAINGGGRTYYADSVKGRFTISRDNAKNTVYLQMNSLKPEDTAVYYCAARPRWSPSKYDYWGQGTQVTVSS,high polyreactivity
8,QVQLVESGGGLVQAGGSLRLSCAASGTFYYYAMGWYRQAPGKERELVAAISNGDSTTYADSVKGRFTISRDNAKNTVYFQMNSLKPEDTAVYYCAAYRYTPRTSRGYYYWGQGTQVTVSS,low polyreactivity
9,QVQLVESGGGLVQAGGSLRLSCAASGTIFAKYAMGWYRQAPGKERELVAAISRSSVRTRYADSVKGRFTISRDYAKNTVYLQMNSLKPEDTAVYYCNAYYRSYAYSHLDYWGQGTQVTVSS,high polyreactivity
10,QVQLVESGGGLVQAGGSLRLSCAASGTIFLYYAMGWYRQAPGKERELVAGINRVGSTNYADSVKGRFTISRDNAKNTVYLQMNSLKPEDTAVFYCNKAATRSRSRGYWGQGTQVNVSS,low polyreactivity
11,QVQLVESGGGLVQAGGSLRLSCAASGTIFQENAMGWYRQAPGKERELVAAITGSGDSTYYADSVKGRFTISRDNAKNTVYLQMNSLKPEDTAVYYCAASWHTPTVYDEYYYWGQGTQVTVSS,low polyreactivity
12,QVQLVESGGGLVQAGGSLRLSCAASGTIFRWYAMGWYRQARGKEREFVAAITSSGGSTYYADSVKGRFTISRDNAKNTVYLQMNSLKPEDTAVYYCAARGWTANYEMDHWGQGTQVTVSS,high polyreactivity
13,QVQLVESGGGLVQAGGSLRLSCAASGTIFVAYDMGWYRQAPGKERELVAAINFDGTSTYYADSVKGRFTISRDNAKNTVYLQMNSLKPEDTAVYYCNKRVSPTYKGQYDYWGQGTQVTVSS,low polyreactivity
14,QVQLVESGGGLVQAGGSLRLSCAASGTLSSYAMGWYRQAPGKERELVAAISLSGGSTYADSVKGRFTISRDNAKKSVYLQMNSLKPEDTAVYYCAKDWDVEITWSFSIYNYWGQGTHVTVSS,low polyreactivity
15,QVQLVESGGGLVQAGGSLRLSCAASGTNVKGWYRQAPGKERELVAAISGSGGSTYYADSVKGRFTISRDNAKNTVYLQMNSLKPEDTAVYYCAADSIQYTARPYDYWGQVTQVTVSS,low polyreactivity
16,QVQLVESGGGLVQAGGSLRLSCAASGTSGYYAMGWNRQAPGKERELVAGISIGGSTNYADSVKGRFTISRDNAKNTVYLQMNSLKTEDTAVYYCAVDGYVAFSPDRNNYWGQVTQVTVSS,low polyreactivity
17,QVQLVESGGGLVQAGGSLRLSCAASGTTFPLYAMGWYRQAPGKERELVAAITSVGSTYYADSVKGRFTISRDNAKNTVYLQMNSLKPEDTAVYDCAAANYTYASRWYDYWGQGTQVTVSS,low polyreactivity
18,QVQLVESGGGLVQAGGSLRLSCAASGTTFRANAMGWYRQAPAKERELVAAITSGGSTNYADSVKGRFTISRDNAKNTVYLQMNSLKPEDTAVYYCAKETYYGTDNFGQVGGEMDYWGQGNQVTVSS,low polyreactivity
19,QVQLVESGGGLVQAGGSLRLSCAASGTTFRFYAMGLYRQAPGKERELDAAINGSGGSTYYADSVKGRFTISRDNAKNTVYFQMISMKPEDTAVYYCAADGVPDALDRDYWGQGTQVNVSS,low polyreactivity
20,QVQLVESGGGLVQAGGSLRLSCAASGTTFTAYAMGWYREAPGKERELVAAINWSGGTTYYADSVKGRFTISRDNAKNTVYLQMTSLKPEDTAVYYCAVDGNFFVEVSPYDYWGQGTQVTVSS,low polyreactivity
21,QVQLVESGGGLVQAGGSLRLSCAASGTTFYGYVMGWYRQAPGKQREWVAAISSSGGRTYYADSVKGRFTISRDNAKNTVYLQMNSLNPEDTAVYYCNTVQRYSTHYDYWGQGTQVTVSS,high polyreactivity
22,QVQLVESGGGLVQAGGSLRLSCAASGTTIQGYAMGWYRQAPGKERELVAAISGSGGTTYYADSVKGRFTISRDNAKNTVYLQMNSLKPEDTAVYYCAAYVFYNFGVYTRGYYYWGQGTQVTVSS,high polyreactivity

row,Sequence,polyreactivity (PSR sort gate)
1,QVQLVESGGGLVQAGGSLRLSCAASGVIFYRNAMGWYRQAPGKERELVATIRYSGGSTYYADSVKGRFTISRDNAKNTVYLEMNSLKPEDSAVYYCNARRWYLPRRSGYGYWGQGTVVTVSS,high polyreactivity
2,QVQLVESGGGLVQAGGSLRLSCAASGVTFDAYVMGWYRQAPRKERELVAGIYSGGSTYYADSVKGRFTISRDNAKNTVYLQMNSLKPEDTAVYYCARENYRFAHEPPVSRQIPYDYWGQGTQVTVSS,low polyreactivity
3,QVQLVESGGGLVQAGGSLRLSCAASGVTFESYDMGWYRQAHGKERELVAAITWDGGSTYYADSVKGRFTISRDNAKNTVYLQMNSLKPEDTAVYYCAADFGTISIDVYSWMDYWGQGTQVTVSS,low polyreactivity
4,QVQLVESGGGLVQAGGSLRLSCAASGVTFQFYARGWYREAPGKERELVAAISRRGGRTDYADSVTGRFTISRDNAKNTAYLQMNSLKPEDTAVYYCARDPGAFEYWGQGTQVTVSS,high polyreactivity
5,QVQLVESGGGLVQAGGSLRLSCAASGVTFYHNAMGSYRQAPGKERELVAAISSSGDSTYYADSVKGRFTISRDNAKNTVYLHMNSLKPEDTAVYYCNDYFYYLSLYYYYWFNYDYWGQGTQVTVSS,low polyreactivity
6,QVQLVESGGGLVQAGGSLRLSCAASGYFDLNAMGWYRQAPGKERELVAAITDGGSTNYADSVKGRFTISRDNAKNTVYLQMNSLKPEDTAVYYCAADRGHTILHGGYWGQGTQVTVSS,low polyreactivity
7,QVQLVESGGGLVQAGGSLRLSCAASGYIFDAYAMGWYRQAPGKERELVAAIDIGGSTYYADSVKGRFTISRDNAKNTVYLQMNSLKPEDTAVYYCAEWFYFDQWDYAREYWGQGTQVTVSS,low polyreactivity
8,QVQLVESGGGLVQAGGSLRLSCAASGYIFDPNAMGWYRQAPGKERELVAAISGSGTSTYYADSVKGRFTISRDNAKNTVYLQMNSLKPEDTAVYYCAAAHDAGPVRYYYWGQGTQVTVSS,low polyreactivity
9,QVQLVESGGGLVQAGGSLRLSCAASGYIFDVNAMGWSRPAPGKESELVASISRSGASTYYADSVKGRFTISRDNAKNTVYLQMNSLQPEDTAVYYCNAVSRYCEYDSWGQGTQVTVSS,high polyreactivity
10,QVQLVESGGGLVQAGGSLRLSCAASGYIFDYYAMGWYRQAPWKERELVAAISSSGGTTYYADSVKGRFTISRDNAKNTVYLQMNSLKPEDTAVYYCAARKSRWQRGYYYWGQGTQVTVSS,high polyreactivity
11,QVQLVESGGGLVQAGGSLRLSCAASGYIFFGNAMGWYRQAPGKERELVAAIRWRGTSTYYADSVKGRFTISRDNAKNTVYLQMNSLKPEDTAVYYCAADVVRYNFYGTFLYDYDYWGQGTQVTVSS,low polyreactivity
12,QVQLVESGGGLVQAGGSLRLSCAASGYIFGSYVMGWYRQAPGKERELVAAITRIGASTYYADSVKGRFTISRDNAKNNVYLQMNSLKPEDTAVYYCATDQGGYYENDYWGQGNQVTVSS,low polyreactivity
13,QVQLVESGGGLVQAGGSLRLSCAASGYIFGVYAMGWYRQAPGKERELVAAISYGVGSTSYADSVKGRFTISRDNAKNTVYLQMNSLKPEDTAVYYCAADVFFYVYEAYLLYYWGQGTQVTVSS,low polyreactivity
14,QVQLVESGGGLVQAGGSLRLSCAASGYIFGVYVMGSYRQAPGKERELVAAITRGGGNTYYADSVKGRFTISRDNAKNSVYLQMNSLKPEDTAVYYCAARSLKSLSRYYYWGQGTQVTVSS,high polyreactivity
15,QVQLVESGGGLVQAGGSLRLSCAASGYIFGWNAMGWYRQAPGKERELVASIRWGGGSTYYADSVKGRFTISRDNAKNTVYLQMNSLKPEDTAVYYCAAKRRYYGPWSRIGYDYWGQGTQVTVSS,low polyreactivity
16,QVQLVESGGGLVQAGGSLRLSCAASGYIFGWYAMGWYRQAPGKERELLATIDWSGDSTYYADSVKGRFTISRDNAKNTVYLQMNSLKPEDTAVYYCAVGYVVDTWDEYDYWGQGTQVTVSS,low polyreactivity
17,QVQLVESGGGLVQAGGSLRLSCAASGYIFGYYAMGWYRQAPGKERELVAAISTDGSTDYADSVKGRFTISRDNAKKTVYLQMNSLKPEDTAVYYCAKELFIVTNGVYIYDSWGQGTQVTVSS,low polyreactivity
18,QVQLVESGGGLVQAGGSLRLSCAASGYIFGYYVMGWYRQAPGKERELVAAISDSDITYYADSVKGRFTISRDNAKNTVYLQMNSLKPEDTAVYYCNKDHSLYEHNYWGQGTLVTVSS,low polyreactivity
19,QVQLVESGGGLVQAGGSLRLSCAASGYIFGYYVMGWYRQAPGKERELVAAITGRGGSTYYADSVKGRFTISRDNAKNTVYLQMNSLKPEDTAVYYCAADATTYPYDPWHLYEIWEYYYWGQGTQVTVSS,low polyreactivity
20,QVQLVESGGGLVQAGGSLRLSCAASGYIFHYNTMGWYRQAPGKERELVAAITWSGGNTYYADSVKGRFTISRDNAKNTVYLQMNSLKPEDTAVYYFAKLNYSPEATRSNYWGQGTQVTVSS,low polyreactivity
21,QVQLVESGGGLVQAGGSLRLSCAASGYIFILYAKGWYRQATGKERQLVATISSNAVSTYYADSVKGRFTISRDNAKITVYLQMNSLKPEDTAVYYCNVEYTPNTVSGYDYWGQGTQVTVSS,low polyreactivity
